Experiments:
Experiment in all cases: cell_activity
[1] = tested on: ZFA36-ND3 (Artificial (ND3 from Clostridium sp. 7_2_43FAA))
[2] = tested on: ZFA36-ND4 (Artificial (ND4 from Clostridiales bacterium))
[3] = tested on: ZFA36-FokI (FokI-ND ZFN) (Artificial)
[4] = tested on: ZFA36-FokI-Sharkey (Artificial); details: SSA reporter HEK293T
[5] = tested on: ZFA36-ND1 (Artificial (ND1 from Bacillus sp. SGD-V-76))
[6] = tested on: TALE-ROSA26-FokI right (Artificial); details: SSA reporter pair with left TALEN, close to reference
[7] = tested on: TALE-ROSA26-ND1 right (Artificial); details: SSA reporter pair with left TALEN
ZFL1-ND1 (Artificial) = details: SSA, ZFL1-ND1 alone
[8] = tested on: TALE-HPRT1-FokI right (Artificial); details: SSA reporter pair with left TALEN
[9] = tested on: TALE-HPRT1-ND1 right (Artificial); details: SSA reporter pair with left TALEN
[10] = tested on: TALE-HPRT1-FokI left (Artificial); details: SSA reporter pair with right TALEN
[11] = tested on: TALE-HPRT1-ND1 left (Artificial); details: SSA reporter pair with right TALEN
[12] = tested on: TALE-ROSA26-FokI left (Artificial); details: SSA reporter pair with right TALEN, close to reference
[13] = tested on: TALE-ROSA26-ND1 left (Artificial); details: SSA reporter pair with right TALEN

Chain of ZFA36-FokI (FokI-ND ZFN) (Artificial) (chain, as listed by the source): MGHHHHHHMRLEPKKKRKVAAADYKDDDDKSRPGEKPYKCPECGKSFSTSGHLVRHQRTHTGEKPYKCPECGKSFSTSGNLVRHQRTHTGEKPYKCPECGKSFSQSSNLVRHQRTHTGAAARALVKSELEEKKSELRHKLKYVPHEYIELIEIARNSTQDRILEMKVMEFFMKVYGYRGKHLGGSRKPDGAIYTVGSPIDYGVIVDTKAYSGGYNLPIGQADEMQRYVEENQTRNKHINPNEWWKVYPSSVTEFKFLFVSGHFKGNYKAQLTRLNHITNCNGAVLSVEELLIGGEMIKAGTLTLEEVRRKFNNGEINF
Chain of ZFL1-ND1 (Artificial) (chain, as listed by the source): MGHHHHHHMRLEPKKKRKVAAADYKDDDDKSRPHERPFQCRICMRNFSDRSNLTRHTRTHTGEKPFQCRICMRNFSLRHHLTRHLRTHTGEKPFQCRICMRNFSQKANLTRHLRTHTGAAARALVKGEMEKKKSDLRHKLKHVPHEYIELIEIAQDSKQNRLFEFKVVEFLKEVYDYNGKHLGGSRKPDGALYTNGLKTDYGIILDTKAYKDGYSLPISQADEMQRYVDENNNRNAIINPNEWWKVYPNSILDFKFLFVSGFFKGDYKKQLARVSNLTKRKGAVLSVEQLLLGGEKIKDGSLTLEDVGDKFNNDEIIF
Chain of ZFA36-FokI-Sharkey (Artificial) (chain, as listed by the source): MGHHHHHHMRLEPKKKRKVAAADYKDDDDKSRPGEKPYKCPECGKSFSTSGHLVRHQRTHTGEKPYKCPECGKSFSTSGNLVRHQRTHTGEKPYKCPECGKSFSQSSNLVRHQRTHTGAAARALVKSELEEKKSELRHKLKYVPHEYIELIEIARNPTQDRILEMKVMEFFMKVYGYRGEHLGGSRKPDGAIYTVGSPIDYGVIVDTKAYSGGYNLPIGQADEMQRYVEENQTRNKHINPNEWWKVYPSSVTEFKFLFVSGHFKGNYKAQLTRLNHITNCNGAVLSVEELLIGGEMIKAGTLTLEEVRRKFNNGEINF

ACCATCTTCAAGAGAGAAGATGGC (double strand) [ZFA36-ZFA36 CHO-K1 2nd site]
activity (% mutated clones) ([1]; CHO-K1, 3/16): 18.8 | activity (% mutated clones) ([2]; CHO-K1, 0/14): 0

ACCATCTTCCACTCTGAAGATGGA (double strand) [ZFA36-ZFA36 CHO-K1 1st site]
activity (% mutated clones) ([1]; CHO-K1, 0/15, Cel-I about 25-45% of FokI depending on site): 0 | activity (% mutated clones) ([2]; CHO-K1, 0/16, no cleavage detected): 0

ACCATCTTCNNNNNNGAAGATGGT (double strand) [ZFA36-6bp-ZFA36 site]
binding signal ([3]; SSA reporter HEK293T, reference): 1 | binding signal (fold of ZFA36-FokI) [4]: 1.5 | binding signal (fold of ZFA36-FokI) ([5]; SSA reporter HEK293T): > 1.2 | binding signal (fold of ZFA36-FokI) ([1]; SSA reporter HEK293T): 0.2 | binding signal (fold of ZFA36-FokI) ([2]; SSA reporter HEK293T): 0.2

GCCTCGACTTGCAGATCA (double strand) [ROSA26 right half-site (top strand)]
binding signal (fold of ZFA36-FokI) [6]: 1 | binding signal (fold of TALE-ROSA26-FokI) [7]: 2

GTCACCTTCNNNNNNGAAGATGGT (double strand) [ZFL1-6bp-ZFA36 site]
binding signal ([3]; SSA, ZFA36-FokI alone): 35% | binding signal ([5]; SSA, ZFA36-ND1 alone): 90% | binding signal (ZFL1-ND1 (Artificial)): 40%

TCCTAATCACTATGTCGA (double strand) [HPRT1 right half-site (top strand)]
binding signal (fold of ZFA36-FokI) [8]: 0.5 | binding signal (fold of TALE-HPRT1-FokI) [9]: 2

TGAACCAGGCTATGACCT (double strand) [HPRT1 left half-site]
binding signal (fold of ZFA36-FokI) [10]: 0.5 | binding signal (fold of TALE-HPRT1-FokI) [11]: 2

TGCCCAGAAGACTCCCG (double strand) [ROSA26 left half-site]
binding signal (fold of ZFA36-FokI) [12]: 1 | binding signal (fold of TALE-ROSA26-FokI) [13]: 2
